Target: C0-C1-C2 region of the glutamate NMDAR NR1 subunit (mouse) (UniProt P35438)
Test: pull-down; competition: 0.2 uM CaM with NR1 C0-C1-C2 covalently attached to NHS-activated Sepharose, 2.5 mM CaCl2, increasing concentrations of σ1R WT or E102Q; bound CaM and σ1R by western blot

UniProt P35438, sequence (P35438 834-938): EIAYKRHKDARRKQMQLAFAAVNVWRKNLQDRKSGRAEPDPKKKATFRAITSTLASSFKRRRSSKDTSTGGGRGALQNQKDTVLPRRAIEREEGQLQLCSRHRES

Row | Substance | concentration that prevented the binding of 200 nM CaM to NR1 [nM] | concentration that abolished the binding of 200 nM CaM to NR1 [nM]
1 | sigma receptor type 1 (σ1R) E102Q mutant (from UniProt O55242 1-223) (natural protein) | < 0.2 | 
2 | sigma receptor type 1 (σ1R), wild-type (from UniProt O55242 1-223) (natural protein) |  | 60

Reference: paper PMC7582951
